Numbered stars: 1 amine (or outer) side, 2 acyl side, 3 side chain; on linkers, the order of the positions; unused ones are H or OH. Square brackets hold non-standard residues; d marks the D form. * marks the point of attachment. X2 = 4‑amino‑1‑((3-fluoro-4-methylbenzyl)glycyl)piperidine‑4‑carboxylic acid, Cc1ccc(CN(CC(=O)N2CCC(N[*:1])(C(=O)[*:2])CC2)[*:3])cc1F; X10 = 3‑(2-(2-(3-(4-iodophenyl)propanamido)ethoxy)ethoxy)propanoyl, O=C(CCc1ccc(I)cc1)NCCOCCOCCC(=O)*; DOTA = O=C(O)CN1CCN(CC(=O)O)CCN(CC(=O)*)CCN(CC(=O)O)CC1; Api(1-amidino) = N=C(N)N1CCC(N)(C(=O)O)CC1; 4Pal = N[C@@H](Cc1ccncc1)C(=O)O; d4Pal = N[C@H](Cc1ccncc1)C(=O)O; Ahx = NCCCCCC(=O)O; azaGly = NNC(=O)O
Biological target: T1, human kisspeptin receptor (KISS1R) (human, UniProt Q969F8 1-398)
T1 construct: whole, on cells; Assayed as crude membrane fractions of tetracycline-induced Flp-In T-Rex 293 cells expressing the receptor; also called GPR54; hKiSSR
Assay: radioligand competition, hKISS1R membranes; legend: A is <10 nM
Experimental: The cells are grown to 85-100% confluence on standard tissue culture dishes in Dulbecco's Modified Eagles Medium (DMEM) (Corning) supplemented with 10% FBS (Gemini), 1% penicillin-streptomycin-glutamine (Gibco), 500 μg/mL hygromycin, and 15 μg/mL blastacidin. 48 hrs prior to preparing membranes 10 μg/ml of tetracycline is added to the culture media to induce receptor expression. To prepare membranes, cells are scraped and collected in 1× Dulbecco's phosphate buffered saline (Corning) and then pelleted at 1000 RPMs. The cell pellet is reconstituted in membrane preparation buffer (20 mM HEPES, 6 mM MgCl₂ and 1 mM EGTA, protease inhibitor tablets (Pierce), pH 7.4) and placed in a cell disruption vessel (Parr Instrument company) at 1000 PSI for 30 min on ice. The pressurized contents are then released and spun down at 1000 RPMs and the supernatant is collected and further centrifuged at 15,000 RPMs to pellet the membranes. The membrane pellet is resuspended in membrane preparation buffer, snap frozen and stored at −80° C. for later use.
Assay contents are then filtered through unifilter CF/C: microplates (PerkinElmer) pre-soaked with 0.5% BSA and washed with 9×400 μL of cold wash buffer (10 mM HEPES, 500 mM NaCl, 0.1% Tween-20, pH7.4). Assay plates are read using a Microbeta² (PerkinElmer) and Ki values for compounds are determined using a GraphPad Prism 9.3 non-linear regression analysis.

T1 sequence (Q969F8 whole entry): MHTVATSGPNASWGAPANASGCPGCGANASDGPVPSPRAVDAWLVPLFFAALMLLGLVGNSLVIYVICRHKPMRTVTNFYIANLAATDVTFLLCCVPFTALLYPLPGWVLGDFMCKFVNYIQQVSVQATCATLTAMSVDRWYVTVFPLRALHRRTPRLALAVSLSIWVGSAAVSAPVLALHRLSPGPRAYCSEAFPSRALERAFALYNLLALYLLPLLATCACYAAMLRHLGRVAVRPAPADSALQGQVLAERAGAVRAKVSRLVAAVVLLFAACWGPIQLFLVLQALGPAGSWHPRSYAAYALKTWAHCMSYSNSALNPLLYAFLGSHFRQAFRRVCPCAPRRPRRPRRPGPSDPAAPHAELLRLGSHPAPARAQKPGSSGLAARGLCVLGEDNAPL

In the case of X10-[dY]K(DOTA)NTF[azaGly]L[Api(1-amidino)]W-NH2 (also: indium(III) chelated by DOTA on Lys, also called 196-In) [In Complex of Compound 196], the Ki is reported as < 10 nM.

With {DOTA-Ahx}-[dY][dW]NTF[azaGly]L[X2]W-NH2 (also: nonradioactive indium(III) chelated by DOTA, also called 1-In) [In Complex of Compound 1] the Ki was < 10 nM.

In the case of {DOTA-Ahx}-[dY][dW]NTF[azaGly]L[X2]W-NH2 (also: nonradioactive gallium(III) chelated by DOTA, also called 1-Ga) [Ga Complex of Compound 1], the Ki is reported as < 10 nM.

In the case of {DOTA-Ahx}-[dY][dW]NTF[azaGly]L[Api(1-amidino)]W-NH2 (also: nonradioactive indium(III) chelated by DOTA, also called 6-In) [In Complex of Compound 6], the Ki is reported as < 10 nM.

In the case of {DOTA}-G[dY][d4Pal]NTF[azaGly]L[X2]Y-NH2 (also: nonradioactive indium(III) chelated by DOTA, also called 193-In) [Indium complex of Compound 193], the Ki is reported as < 10 nM.

{DOTA-Ahx}-[dY][dW]NTF[azaGly]L[X2]W-NH2 (also: lutetium(III) chelated by DOTA, also called 1-Lu) [Lu Complex of Compound 1] was tested, and the Ki was < 10 nM.

In the case of {DOTA-Ahx}-[dY][dW]NTF[azaGly]L[X2][4Pal]-NH2 (also: nonradioactive indium(III) chelated by DOTA, also called 105-In) [In Complex of Compound 105], the Ki is reported as < 10 nM.

For {DOTA-Ahx}-F[azaGly]L[X2]W-NH2 (also: nonradioactive indium(III) chelated by DOTA, also called 2-In) [In Complex of Compound 2], the Ki was < 10 nM.
